Assays:
[1] = test system: MLKL knocked-down HT-29 cells; experiment: Yield of exosomes in MLKL knocked-down HT-29 cells inducibly expressing MLKL mutants; type: cell-based, human; details: inducible expression, compared to wild-type MLKL
Source text: (§1) The various mutants of MLKL were expressed inducibly in HT-29 cells in which the endogenous MLKL mRNA was constitutively knocked down. Expression was achieved by lentiviral infection with the GEV16/pF5x UAS system as described previously [Dunning C J et al. The EMBO Journal (2007) 26, 3227-3237, doi:10.1038/sj.emboj.7601748].
In all experiments aimed at assessing the generation of exosomes by cultured cells, the FBS supplementing the growth medium was pre-depleted of bovine exosomes by centrifugation at […] for 18 hours. Except where otherwise indicated, the exosomes were collected after 12 hours of incubation. The stimuli whose effect on exosome generation was to be assessed were applied for the indicated times towards the end of this 12 hour period. Unless otherwise indicated, TBZ was applied for 4 hours. For recovery of exosomes from the mice, mouse blood samples were collected in MiniCollect®TUBEs (Greiner Bio-One) and centrifuged at 3000 rpm for 15 minutes. Mouse plasma and cell-growth media were passed through 0.2 μm filters and centrifuged at […] for 90 minutes, after which the pellet was suspended in phosphate-buffered saline (PBS) and re-sedimented by centrifugation as above. Size spectra and amounts of the particles in the exosome preparations were determined by Nanoparticle Tracking Analysis using the NanoSight NS300 device (Malvern Instruments) according to the manufacturer's instructions.

[2] = test system: MLKL knocked-down HT-29 cells; experiment: Cell death in MLKL knocked-down HT-29 cells inducibly expressing MLKL mutants; type: cell-based, human; details: induced expression of the mutant
Source text: as §1
Cell death was quantified using the Cytotoxicity Detection Kit (Roche Applied Science) to determine the concentration of lactic dehydrogenase (LDH) in the mouse cell media or plasma.

B1: MLKL deletion mutant corresponding to its 180 N-terminal amino acid coiled-coil region: MLKL deletion mutant, 180 N-terminal amino acids (protein, UniProt Q8NB16 1-180, looked up, fragment)
chain: MENLKHIITLGQVIHKRCEEMKYCKKQCRRLGHRVLGLIKPLEMLQDQGKRSVPSEKLTTAMNRFKAALEEANGEIEKFSNRSNICRFLTASQDKILFKDVNRKLSDVWKELSLLLQVEQRMPVSPISQGASWAQEDQQDADEDRRAFQMLRRDNEKIEASLRRLEINMKEIKETLRQYL
generation of exosomes [1]: significantly lower | cell death [2]: triggers necrotic death of the cells

From patent publication US20190195891A1, “DIAGNOSTIC AND THERAPEUTIC USES OF EXOSOMES” (Yeda Research and Development Co. Ltd., priority 2016, published 2019)
